Data set [1] concerns the molecule itself. Description: AUC; sedimentation velocity, DEC-205 ECD 0.2 mg ml^-1, BIS-TRIS buffer pH 6.0, 150 mM NaCl, 20 °C, 37,000 RPM.
Data set [2] concerns the molecule itself. The experiment in a line: SEC-MALS; DEC-205 ECD, 50 ul at 1 mg ml^-1, Superdex 200 5/150, TBS (10 mM Tris-HCl pH 8.0, 150 mM NaCl). (In general: SEC sorts molecules by how far they enter the pores of the column.)
Data set [3] deals with the molecule itself. The experiment in a line: AUC; sedimentation velocity, DEC-205 ECD 0.2 mg ml^-1, TBS pH 8.0, 150 mM NaCl, 20 °C, 37,000 RPM.

B1: soluble DEC-205 ectodomain (ECD), residues 1-1664 (domain or fragment, human, UniProt O60449-1 28-1664, looked up)
chain: SGRAANDPFTIVHGNTGKCIKPVYGWIVADDCDETEDKLWKWVSQHRLFHLHSQKCLGLDITKSVNELRMFSCDSSAMLWWKCEHHSLYGAARYRLALKDGHGTAISNASDVWKKGGSEESLCDQPYHEIYTRDGNSYGRPCEFPFLIDGTWHHDCILDEDHSGPWCATTLNYEYDRKWGICLKPENGCEDNWEKNEQFGSCYQFNTQTALSWKEAYVSCQNQGADLLSINSAAELTYLKEKEGIAKIFWIGLNQLYSARGWEWSDHKPLNFLNWDPDRPSAPTIGGSSCARMDAESGLWQSFSCEAQLPYVCRKPLNNTVELTDVWTYSDTRCDAGWLPNNGFCYLLVNESNSWDKAHAKCKAFSSDLISIHSLADVEVVVTKLHNEDIKEEVWIGLKNINIPTLFQWSDGTEVTLTYWDENEPNVPYNKTPNCVSYLGELGQWKVQSCEEKLKYVCKRKGEKLNDASSDKMCPPDEGWKRHGETCYKIYEDEVPFGTNCNLTITSRFEQEYLNDLMKKYDKSLRKYFWTGLRDVDSCGEYNWATVGGRRRAVTFSNWNFLEPASPGGCVAMSTGKSVGKWEVKDCRSFKALSICKKMSGPLGPEEASPKPDDPCPEGWQSFPASLSCYKVFHAERIVRKRNWEEAERFCQALGAHLSSFSHVDEIKEFLHFLTDQFSGQHWLWIGLNKRSPDLQGSWQWSDRTPVSTIIMPNEFQQDYDIRDCAAVKVFHRPWRRGWHFYDDREFIYLRPFACDTKLEWVCQIPKGRTPKTPDWYNPDRAGIHGPPLIIEGSEYWFVADLHLNYEEAVLYCASNHSFLATITSFVGLKAIKNKIANISGDGQKWWIRISEWPIDDHFTYSRYPWHRFPVTFGEECLYMSAKTWLIDLGKPTDCSTKLPFICEKYNVSSLEKYSPDSAAKVQCSEQWIPFQNKCFLKIKPVSLTFSQASDTCHSYGGTLPSVLSQIEQDFITSLLPDMEATLWIGLRWTAYEKINKWTDNRELTYSNFHPLLVSGRLRIPENFFEEESRYHCALILNLQKSPFTGTWNFTSCSERHFVSLCQKYSEVKSRQTLQNASETVKYLNNLYKIIPKTLTWHSAKRECLKSNMQLVSITDPYQQAFLSVQALLHNSSLWIGLFSQDDELNFGWSDGKRLHFSRWAETNGQLEDCVVLDTDGFWKTVDCNDNQPGAICYYSGNETEKEVKPVDSVKCPSPVLNTPWIPFQNCCYNFIITKNRHMATTQDEVHTKCQKLNPKSHILSIRDEKENNFVLEQLLYFNYMASWVMLGITYRNKSLMWFDKTPLSYTHWRAGRPTIKNEKFLAGLSTDGFWDIQTFKVIEEAVYFHQHSILACKIEMVDYKEEYNTTLPQFMPYEDGIYSVIQKKVTWYEALNMCSQSGGHLASVHNQNGQLFLEDIVKRDGFPLWVGLSSHDGSESSFEWSDGSTFDYIPWKGQTSPGNCVLLDPKGTWKHEKCNSVKDGAICYKPTKSKKLSRLTYSSRCPAAKENGSRWIQYKGHCYKSDQALHSFSEAKKLCSKHDHSATIVSIKDEDENKFVSRLMRENNNITMRVWLGLSQHSVDQSWSWLDGSEVTFVKWENKSKSGVGRCSMLIASNETWKKVECEHGFGRVVCKVPLG
notes: signal peptide in the construct; Monomer at pH 6.0, tetramer at pH 8.0; In both reconstructions only R30 to E1383 (CysR to CTLD8) could be built; CTLD9 and CTLD10 are invisible; also called CD205; source: HEK293S, transient transfection, secreted, purified (FLAG resin, size exclusion)
As usually defined, the stoichiometry N is a count of units in the complex or per binding partner. As for B1, the “stoichiometry N” value in data set [1] was found to be 2; in data set [2] it was 4; in data set [3] it was 6.

These data come from publication PMC7948739 (The Journal of Biological Chemistry, 2020).
